Measured values from PMC3092982.

Key:
[1] = target: Complement factor H (Homo sapiens) (UniProt P08603); conditions: cited from earlier work
[2] = target: C3d C3d (Homo sapiens) (UniProt P01024); conditions: cited from earlier work
[3] = target: FH fragment SCR-16/20 (human); assay: AUC; sedimentation velocity, SCR-16/20 at 0.1 mg/ml, Hepes buffer, 20 °C, c(s) analysis; monomer and dimer peaks across the ZnSO4 titration 0-600 μM

Chain of Complement factor H (P08603 19-1231): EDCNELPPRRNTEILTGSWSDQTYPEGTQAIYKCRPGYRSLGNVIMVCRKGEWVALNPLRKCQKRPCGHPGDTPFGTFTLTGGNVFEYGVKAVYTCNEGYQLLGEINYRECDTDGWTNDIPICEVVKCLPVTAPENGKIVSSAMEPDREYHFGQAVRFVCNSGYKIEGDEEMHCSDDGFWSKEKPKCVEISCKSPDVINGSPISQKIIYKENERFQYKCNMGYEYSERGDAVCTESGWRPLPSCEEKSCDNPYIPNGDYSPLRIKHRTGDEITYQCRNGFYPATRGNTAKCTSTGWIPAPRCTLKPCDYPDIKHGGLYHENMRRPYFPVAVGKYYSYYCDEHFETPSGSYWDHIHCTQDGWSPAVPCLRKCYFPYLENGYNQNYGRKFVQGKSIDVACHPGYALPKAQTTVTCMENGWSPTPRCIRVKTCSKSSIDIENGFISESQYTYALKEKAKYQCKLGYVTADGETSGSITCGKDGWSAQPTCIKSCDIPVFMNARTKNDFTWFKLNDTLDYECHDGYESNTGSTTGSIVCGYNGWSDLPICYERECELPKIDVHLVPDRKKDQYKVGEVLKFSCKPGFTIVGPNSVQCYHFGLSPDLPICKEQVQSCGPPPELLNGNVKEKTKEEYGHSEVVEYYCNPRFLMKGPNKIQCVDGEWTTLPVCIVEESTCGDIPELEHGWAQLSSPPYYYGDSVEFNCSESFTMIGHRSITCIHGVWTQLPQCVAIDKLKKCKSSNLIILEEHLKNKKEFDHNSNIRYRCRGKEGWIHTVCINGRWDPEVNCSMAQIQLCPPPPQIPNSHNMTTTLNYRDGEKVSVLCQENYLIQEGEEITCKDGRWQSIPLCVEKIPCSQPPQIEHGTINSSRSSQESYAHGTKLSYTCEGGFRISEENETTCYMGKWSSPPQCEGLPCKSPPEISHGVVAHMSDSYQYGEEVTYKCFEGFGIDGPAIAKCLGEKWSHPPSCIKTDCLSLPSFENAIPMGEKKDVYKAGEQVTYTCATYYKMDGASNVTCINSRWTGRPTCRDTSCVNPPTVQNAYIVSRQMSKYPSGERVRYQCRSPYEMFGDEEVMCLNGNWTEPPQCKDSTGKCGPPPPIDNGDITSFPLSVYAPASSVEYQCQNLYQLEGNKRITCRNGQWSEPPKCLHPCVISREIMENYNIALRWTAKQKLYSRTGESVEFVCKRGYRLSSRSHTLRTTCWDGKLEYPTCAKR
Chain of C3d C3d (Homo sapiens) (P01024 1002-1303): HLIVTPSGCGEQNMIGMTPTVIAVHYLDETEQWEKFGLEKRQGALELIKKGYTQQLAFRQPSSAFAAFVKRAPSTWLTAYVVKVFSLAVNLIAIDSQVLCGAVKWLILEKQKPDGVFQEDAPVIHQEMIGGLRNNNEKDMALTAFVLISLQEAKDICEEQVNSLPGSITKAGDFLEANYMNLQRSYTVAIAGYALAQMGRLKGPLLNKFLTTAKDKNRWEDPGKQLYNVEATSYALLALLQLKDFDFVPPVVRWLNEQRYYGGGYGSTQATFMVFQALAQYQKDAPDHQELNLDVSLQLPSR
Chain of FH fragment SCR-16/20 (domain or fragment) (P08603 19-1231): as the sequence (P08603 19-1231) above

Row | Substance | Kd [1] [µM] | Kd [2] [µM] | stoichiometry N [3]
1 | Complement factor H (from UniProt P08603) | 28 | 2.6 | –
2 | FH fragment SCR-16/20 (domain or fragment) | – | – | 2
